Consider 1 molecule from patent US20120276091A1 (HANWHA CHEMICAL, published 2012).

Assay [1] addresses T1, recombinant human VCAM-1 domain 1-7/Fc chimera (R&D, 862-VC) (human, UniProt P19320 25-698).
T1 construct: domain: D1-D7; Bought; also called VD7; hVCAM-Fc-chimera; not shown: Fc of the bought chimera
T1 sequence (looked up): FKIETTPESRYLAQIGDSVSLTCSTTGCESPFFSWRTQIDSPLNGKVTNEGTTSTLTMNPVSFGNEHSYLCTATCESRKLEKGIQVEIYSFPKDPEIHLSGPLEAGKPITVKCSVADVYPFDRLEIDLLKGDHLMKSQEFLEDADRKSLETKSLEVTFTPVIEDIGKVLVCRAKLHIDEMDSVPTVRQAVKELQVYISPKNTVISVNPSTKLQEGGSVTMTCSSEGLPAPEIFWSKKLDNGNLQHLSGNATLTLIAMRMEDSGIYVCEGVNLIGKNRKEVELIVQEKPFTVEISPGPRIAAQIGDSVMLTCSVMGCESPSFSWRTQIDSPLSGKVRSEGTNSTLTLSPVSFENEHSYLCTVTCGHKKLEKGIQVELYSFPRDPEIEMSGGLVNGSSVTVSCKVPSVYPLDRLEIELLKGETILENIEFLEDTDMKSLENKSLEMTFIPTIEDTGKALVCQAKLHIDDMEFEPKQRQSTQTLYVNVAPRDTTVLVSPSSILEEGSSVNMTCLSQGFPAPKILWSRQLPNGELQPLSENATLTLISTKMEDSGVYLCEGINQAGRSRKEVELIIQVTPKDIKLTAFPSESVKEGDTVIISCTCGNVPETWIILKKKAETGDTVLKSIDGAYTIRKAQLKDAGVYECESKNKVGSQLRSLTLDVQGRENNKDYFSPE
Description: BIACORE (SPR), recombinant VCAM1/Fc immobilised on sensor chip CM5, antibody as analyte, 1:1 binding model. As for the experimental part: (§1) Journal of Bioscience and Bioengineering Vol. 100, No. 3, 311-317, 2005).
(§2) For ligand immobilization to the sensor chip CM5, the chip should be first activated with a mixture of N-hydroxysuccinimide (NHS) and […] (Amine Coupling Kit, BR-1000-50) to prepare a NHS-ester-activated chip surface being highly reactive to amino group. 1 mg/ml of ligand to be immobilized was diluted in 97 μl of each sodium acetate solution (vary within the pH range from 4.0 to 5.5) at a dilution ratio of 3/100, and then applied at a flow rate of 10 μl/min for about 3 min (as a negative control, the ligand was diluted using a running buffer, HBS-EP buffer (BIACORE AB, Sweden) in the same manner). In order to immobilize the ligand at a predetermined value target RU (resonance unit), serial injection was carried out automatically, until reaching target RU. […] The final RU was determined by an immobilization report which provides a difference in RU values before and after injection of ethanolamine.
(§3) A flow cell 2-flow cell 1 mode provided by BIACORE instrument was employed in this experiment in order to remove non-specific binding. […] Through this procedure, an association/dissociation curve of the corresponding antigen and antibody was obtained, and an association/dissociation constant KD was calculated by BIAevaluation program (BIACORE AB, Sweden), as shown in FIG. 3.

For assay [2], the target named is T1, recombinant human VCAM-1 domain 1-7/Fc …. Description: BIACORE (SPR), VCAM1/Fc immobilised on CM5 chip, antibody as analyte, 1:1 binding model. On the procedure: as §1, §2, §3
In general terms: SPR reads the build-up and loss of mass on a sensor chip optically.

B1: 7HT antibody (VCAM-1 antibody, VCAM-1 Ab) (antibody, V domains shown)
VH: EVQLVQSGGDLVKPGESLRLSCAASGFTFNDAWMTWVRQPPGKGLEWVGRIKSTTDGGTTNYAAPVEGRFTISRDDSKNTLYLEMNSLRAEDTAVYYCARIPLFNHDSGGYHGAFDIWGQGTMVTVSS
VL: DIQMTQSPSSLAVSLGERATINCKSSQSVLYSSNNKNYLAWYQQKPGQPPKLLIYWASTRESGVPDRFSGSGSGTDFTLTISSLQPEDFASYYCQESYSAPYTFGQGTKVEIKR
notes: Human antibody, full IgG; also called VCAM-1 Ab (7HT); 7HT Ab
The term koff denotes the first-order rate constant of dissociation. The kon is the second-order rate constant of association. By Kd is commonly meant the free concentration of one partner at which half of the binding sites on the other are occupied at equilibrium, for simple one-to-one binding. With B1, in assay [1], the off-rate (koff) amounted to 0.00176 s⁻¹ and the association rate constant (kon) was 279000 M⁻¹ s⁻¹. Also, in assay [2], the dissociation constant (Kd) is around 6.3 nM.
